How the values were obtained:
crystal structure = biological target: the molecule itself; assay: crystal structure
SEC + native gel or EMSA = biological target: the molecule itself; assay: SEC + native gel or EMSA

Protein	stoichiometry N (crystal structure)	stoichiometry N (SEC + native gel or EMSA)
Fr-H6(E53H/E56H/E57H/R59H/E60H/E63H) (natural protein, horse) SSQIRQNYSTEVEAAVNRLVNLYLRASYTYLSLGFYFDRDDVALEGVCHFFRHLAHHKHHGAHRLLKMQNQRGGRALFQDLQKPSQDEWGTTLDAMKAAIVLEKSLNQALLDLHALGSAQADPHLCDFLESHFLDEEVKLIKKMGDHLTNIQRLVGSQAGLGEYLFERLTLKHD	24	–
Fr-H4ex(E53H/E57H/E60H/R64H) (natural protein, horse) SSQIRQNYSTEVEAAVNRLVNLYLRASYTYLSLGFYFDRDDVALEGVCHFFRHLAEHKRHGAEHLLKMQNQRGGRALFQDLQKPSQDEWGTTLDAMKAAIVLEKSLNQALLDLHALGSAQADPHLCDFLESHFLDEEVKLIKKMGDHLTNIQRLVGSQAGLGEYLFERLTLKHD	–	24
Fr-H2(E53H/E57H) (natural protein, horse) SSQIRQNYSTEVEAAVNRLVNLYLRASYTYLSLGFYFDRDDVALEGVCHFFRHLAEHKREGAERLLKMQNQRGGRALFQDLQKPSQDEWGTTLDAMKAAIVLEKSLNQALLDLHALGSAQADPHLCDFLESHFLDEEVKLIKKMGDHLTNIQRLVGSQAGLGEYLFERLTLKHD	–	24
Fr-H4in(R52H/E56H/R59H/E63H) (natural protein, horse) SSQIRQNYSTEVEAAVNRLVNLYLRASYTYLSLGFYFDRDDVALEGVCHFFHELAHEKHEGAHRLLKMQNQRGGRALFQDLQKPSQDEWGTTLDAMKAAIVLEKSLNQALLDLHALGSAQADPHLCDFLESHFLDEEVKLIKKMGDHLTNIQRLVGSQAGLGEYLFERLTLKHD	–	24
Fr-H8(R52H/E53H/E56H/E57H/R59H/E60H/E63H/R64H) (natural protein, horse) SSQIRQNYSTEVEAAVNRLVNLYLRASYTYLSLGFYFDRDDVALEGVCHFFHHLAHHKHHGAHHLLKMQNQRGGRALFQDLQKPSQDEWGTTLDAMKAAIVLEKSLNQALLDLHALGSAQADPHLCDFLESHFLDEEVKLIKKMGDHLTNIQRLVGSQAGLGEYLFERLTLKHD	24	–
